# Measured values: IntAct's records for PubMed 34237462
# B1: Anterior gradient protein 2 homolog (Homo sapiens), O95994 (parent)
# chain: MEKIPVSAFLLLVALSYTLARDTTVKPGAKKDTKDSRPKLPQTLSRGWGDQLIWTQTYEEALYKSKTSNKPLMIIHHLDECPHSQALKKVFAENKEIQKLAEQFVLLNLVYETTDKHLSPDGQYVPRIMFVDPSLTVRADITGRYSNRLYAYEPADTALLLDNMKKALKLLKTEL
# Variants of: B1
# Settings: with muc2_human MUC2, Q02817
row,effect of a mutation on the interaction,Variant
1,decreasing interaction strength,H117Y
